According to paper PMC3578176 (Cancer research, 2012):

Biological target: His(6)-p300 (UniProt Q09472 1-2414)
Assay: pull-down

Chain of His(6)-p300 (Q09472 whole entry): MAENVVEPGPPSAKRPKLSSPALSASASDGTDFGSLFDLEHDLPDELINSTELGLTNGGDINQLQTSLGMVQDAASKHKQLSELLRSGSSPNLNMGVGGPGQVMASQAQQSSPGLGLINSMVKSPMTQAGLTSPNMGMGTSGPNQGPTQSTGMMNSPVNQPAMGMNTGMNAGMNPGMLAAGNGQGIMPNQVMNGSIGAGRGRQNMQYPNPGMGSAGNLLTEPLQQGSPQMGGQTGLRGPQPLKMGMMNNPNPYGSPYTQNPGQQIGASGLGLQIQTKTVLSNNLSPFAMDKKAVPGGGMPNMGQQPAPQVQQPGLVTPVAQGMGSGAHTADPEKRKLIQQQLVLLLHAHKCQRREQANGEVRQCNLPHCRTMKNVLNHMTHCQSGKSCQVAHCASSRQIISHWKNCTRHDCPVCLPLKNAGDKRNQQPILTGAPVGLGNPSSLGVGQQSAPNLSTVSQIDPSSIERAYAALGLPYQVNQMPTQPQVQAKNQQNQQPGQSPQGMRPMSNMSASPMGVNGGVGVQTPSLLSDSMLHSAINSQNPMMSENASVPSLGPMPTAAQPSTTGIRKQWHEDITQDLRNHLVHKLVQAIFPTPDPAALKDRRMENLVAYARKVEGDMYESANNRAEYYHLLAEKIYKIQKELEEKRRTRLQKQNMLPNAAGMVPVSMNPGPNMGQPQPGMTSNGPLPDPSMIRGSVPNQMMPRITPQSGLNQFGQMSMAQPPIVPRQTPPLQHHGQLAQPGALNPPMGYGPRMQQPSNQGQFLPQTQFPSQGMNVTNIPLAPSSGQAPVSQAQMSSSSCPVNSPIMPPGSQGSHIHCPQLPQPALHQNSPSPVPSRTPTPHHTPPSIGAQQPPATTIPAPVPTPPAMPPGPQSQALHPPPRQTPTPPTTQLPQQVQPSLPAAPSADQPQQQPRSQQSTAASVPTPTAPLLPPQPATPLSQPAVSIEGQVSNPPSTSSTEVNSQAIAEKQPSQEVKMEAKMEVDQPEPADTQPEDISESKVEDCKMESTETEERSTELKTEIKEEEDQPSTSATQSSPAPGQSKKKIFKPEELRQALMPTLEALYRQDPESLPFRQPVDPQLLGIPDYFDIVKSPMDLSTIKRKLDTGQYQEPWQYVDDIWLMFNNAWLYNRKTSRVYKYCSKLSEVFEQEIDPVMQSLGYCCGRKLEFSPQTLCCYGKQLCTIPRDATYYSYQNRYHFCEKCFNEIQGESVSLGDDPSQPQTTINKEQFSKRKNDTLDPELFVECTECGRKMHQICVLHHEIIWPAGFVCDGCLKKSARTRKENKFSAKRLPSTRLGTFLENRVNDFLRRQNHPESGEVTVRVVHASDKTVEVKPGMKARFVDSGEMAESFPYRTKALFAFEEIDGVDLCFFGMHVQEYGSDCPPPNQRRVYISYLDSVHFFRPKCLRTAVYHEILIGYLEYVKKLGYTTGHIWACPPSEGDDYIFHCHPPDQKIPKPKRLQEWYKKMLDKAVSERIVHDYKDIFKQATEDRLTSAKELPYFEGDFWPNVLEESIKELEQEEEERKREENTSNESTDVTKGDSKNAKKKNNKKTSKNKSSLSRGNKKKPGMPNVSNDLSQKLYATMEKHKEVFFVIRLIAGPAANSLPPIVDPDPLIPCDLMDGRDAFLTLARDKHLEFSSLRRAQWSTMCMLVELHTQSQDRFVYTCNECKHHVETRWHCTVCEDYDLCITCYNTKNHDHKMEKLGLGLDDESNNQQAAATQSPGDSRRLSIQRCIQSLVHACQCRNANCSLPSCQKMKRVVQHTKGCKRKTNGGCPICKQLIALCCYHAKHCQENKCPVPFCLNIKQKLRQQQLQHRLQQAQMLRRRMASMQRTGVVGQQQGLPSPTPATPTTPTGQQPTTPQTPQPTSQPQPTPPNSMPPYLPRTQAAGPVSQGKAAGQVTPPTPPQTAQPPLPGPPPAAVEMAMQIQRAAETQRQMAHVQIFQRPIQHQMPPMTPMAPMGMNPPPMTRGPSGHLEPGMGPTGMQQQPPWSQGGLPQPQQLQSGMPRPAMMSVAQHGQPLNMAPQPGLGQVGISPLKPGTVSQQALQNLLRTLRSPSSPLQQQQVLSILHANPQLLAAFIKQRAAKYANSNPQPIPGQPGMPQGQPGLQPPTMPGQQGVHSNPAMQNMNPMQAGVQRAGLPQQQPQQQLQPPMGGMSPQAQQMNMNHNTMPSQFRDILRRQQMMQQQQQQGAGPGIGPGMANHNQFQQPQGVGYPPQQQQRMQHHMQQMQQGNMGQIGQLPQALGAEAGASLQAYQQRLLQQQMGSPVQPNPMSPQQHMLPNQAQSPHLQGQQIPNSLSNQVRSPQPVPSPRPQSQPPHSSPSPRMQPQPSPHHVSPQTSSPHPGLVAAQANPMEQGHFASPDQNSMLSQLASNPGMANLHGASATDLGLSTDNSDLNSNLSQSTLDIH

binding result: binds
B1: GST-fused BRMS1 WT (natural protein, UniProt Q9HCU9 1-246, looked up)
chain: MPVQPPSKDTEEMEAEGDSAAEMNGEEEESEEERSGSQTESEEESSEMDDEDYERRRSECVSEMLDLEKQFSELKEKLFRERLSQLRLRLEEVGAERAPEYTEPLGGLQRSLKIRIQVAGIYKGFCLDVIRNKYECELQGAKQHLESEKLLLYDTLQGELQERIQRLEEDRQSLDLSSEWWDDKLHARGSSRSWDSLPPSKRKKAPLVSGPYIVYMLQEIDILEDWTAIKKARAAVSPQKRKSDGP
